Among the data in article PMC10988552 are percent dimer and stoichiometry N values, retold here.

The experiment concerns the target T1, granulocyte colony stimulating factor (G-CSF) (human), P09919.
T1 chain: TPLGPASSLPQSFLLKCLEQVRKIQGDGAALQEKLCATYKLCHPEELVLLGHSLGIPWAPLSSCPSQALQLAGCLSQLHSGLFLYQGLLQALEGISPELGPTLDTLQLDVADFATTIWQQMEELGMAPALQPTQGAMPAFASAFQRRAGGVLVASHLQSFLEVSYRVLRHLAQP
Put plainly: SEC; analytical SEC-HPLC, TSKgel G3000SWXL, mobile phase 0.1 M phosphate pH 2.5, 1 mL/min; 0.3 mg/mL G-CSF in 50 mM citric acid pH 4.25 with or without 1% (w/v) sucrose, mannitol or phenylalanine, before lyophilization; monomer 19.9 min, dimer 18.4 min. The following applies: remark: other sources report otherwise. Background: Size exclusion chromatography separates by hydrodynamic size, large species first.

B1: granulocyte colony stimulating factor (G-CSF), P09919-2 31-204 (natural protein)
chain: T1 chain
Usually stoichiometry N stands for the number of molecules, sites or subunits per partner or assembly. On to B1, for which the percent dimer was found to be 16% and the stoichiometry N was 2.
